Laboratory results: the supplement of paper PMC9876800

Chain of RIPK1, construct: aa1-327 (Q13546 1-327, looked up): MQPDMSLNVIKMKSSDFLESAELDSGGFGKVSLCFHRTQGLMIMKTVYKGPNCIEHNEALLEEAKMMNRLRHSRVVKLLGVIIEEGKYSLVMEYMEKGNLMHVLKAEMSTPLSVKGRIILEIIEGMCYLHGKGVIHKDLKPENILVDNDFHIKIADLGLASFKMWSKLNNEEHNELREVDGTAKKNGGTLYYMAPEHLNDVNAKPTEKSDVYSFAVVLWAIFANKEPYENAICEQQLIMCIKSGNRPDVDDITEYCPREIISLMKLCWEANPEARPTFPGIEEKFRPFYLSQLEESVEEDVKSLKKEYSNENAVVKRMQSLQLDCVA
Chain of AURKA, construct: Full length (O14965 whole entry, looked up): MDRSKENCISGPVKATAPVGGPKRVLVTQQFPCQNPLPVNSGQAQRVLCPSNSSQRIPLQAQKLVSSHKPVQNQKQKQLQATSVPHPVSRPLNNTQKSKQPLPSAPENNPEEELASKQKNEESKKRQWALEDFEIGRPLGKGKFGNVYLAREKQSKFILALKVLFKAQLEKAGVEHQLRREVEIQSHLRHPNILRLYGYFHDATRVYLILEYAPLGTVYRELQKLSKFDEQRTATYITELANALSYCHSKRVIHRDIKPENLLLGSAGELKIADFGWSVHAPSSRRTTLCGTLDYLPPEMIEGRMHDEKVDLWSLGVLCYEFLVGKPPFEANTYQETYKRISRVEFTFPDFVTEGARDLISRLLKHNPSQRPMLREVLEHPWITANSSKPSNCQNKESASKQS

These substances were tested on peptide library, one residue held at a place counted from the S/T acceptor (assay: relative phosphorylation of the sub-library (ratio to the mean residue at this position); human; higher = residue favoured). Conditions: Y fixed; at -2.
Summary of the method: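 Purified recombinant kinases (human or orthologue constructs) were incubated in 384-well plates with biotinylated degenerate peptide sub-libraries, each fixing one residue at one position around a central Ser/Thr. Peptides were at 50 μM, with 50 μM ATP spiked with γ-32P-ATP, for 90 min under kinase-specific conditions. Spots on streptavidin membranes were phosphorimaged and quantified by densitometry. Relative sub-library phosphorylation is a ratio to the mean residue at that position.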
“AURKA, construct: Full length (from UniProt O14965)” was tested, and the relative phosphorylation was 0.185.
With “PRKACB, construct: Full length (from UniProt P22694)” the relative phosphorylation was 0.276.

Same assay, conditions: Y fixed; at -3
With “RIPK1, construct: aa1-327 (from UniProt Q13546)” the relative phosphorylation was 0.84.
“AURKA, construct: Full length (from UniProt O14965)” showed a relative phosphorylation of 0.574.
“PRKACB, construct: Full length (from UniProt P22694)” gave a relative phosphorylation of 0.354.

Same assay, conditions: Y fixed; at -4
“RIPK1, construct: aa1-327 (from UniProt Q13546)” was tested, and the relative phosphorylation was 0.912.
Work on “AURKA, construct: Full length (from UniProt O14965)” yielded a relative phosphorylation of 0.782.
With “PRKACB, construct: Full length (from UniProt P22694)” the relative phosphorylation was 0.67.

Same assay, conditions: Y fixed; at -5
“RIPK1, construct: aa1-327 (from UniProt Q13546)” showed a relative phosphorylation of 0.972.
“AURKA, construct: Full length (from UniProt O14965)” showed a relative phosphorylation of 0.964.
Work on “PRKACB, construct: Full length (from UniProt P22694)” yielded a relative phosphorylation of 0.624.

Same assay, conditions: pThr fixed; at +1
Work on “RIPK1, construct: aa1-327 (from UniProt Q13546)” yielded a relative phosphorylation of 0.704.
With “AURKA, construct: Full length (from UniProt O14965)” the relative phosphorylation was 1.61.
“PRKACB, construct: Full length (from UniProt P22694)” was tested, and the relative phosphorylation was 0.988.

Same assay, conditions: pThr fixed; at +2
For “RIPK1, construct: aa1-327 (from UniProt Q13546)”, the relative phosphorylation was 0.999.
With “AURKA, construct: Full length (from UniProt O14965)” the relative phosphorylation was 1.26.
“PRKACB, construct: Full length (from UniProt P22694)” was tested, and the relative phosphorylation was 0.988.

Same assay, conditions: pThr fixed; at +3
Substance “RIPK1, construct: aa1-327 (from UniProt Q13546)” has a relative phosphorylation of 0.696.
“AURKA, construct: Full length (from UniProt O14965)” gave a relative phosphorylation of 1.07.
“PRKACB, construct: Full length (from UniProt P22694)” showed a relative phosphorylation of 0.984.

Same assay, conditions: pThr fixed; at +4
“RIPK1, construct: aa1-327 (from UniProt Q13546)” was tested, and the relative phosphorylation was 1.06.
“AURKA, construct: Full length (from UniProt O14965)” was tested, and the relative phosphorylation was 1.53.
“PRKACB, construct: Full length (from UniProt P22694)” was tested, and the relative phosphorylation was 1.67.

Same assay, conditions: pThr fixed; at -1
“RIPK1, construct: aa1-327 (from UniProt Q13546)” gave a relative phosphorylation of 0.761.
“AURKA, construct: Full length (from UniProt O14965)” was tested, and the relative phosphorylation was 0.588.
With “PRKACB, construct: Full length (from UniProt P22694)” the relative phosphorylation was 0.443.

Same assay, conditions: pThr fixed; at -2
“RIPK1, construct: aa1-327 (from UniProt Q13546)” gave a relative phosphorylation of 1.34.
“AURKA, construct: Full length (from UniProt O14965)” gave a relative phosphorylation of 0.374.
In the case of “PRKACB, construct: Full length (from UniProt P22694)”, the relative phosphorylation is reported as 0.319.

Same assay, conditions: pThr fixed; at -3
With “RIPK1, construct: aa1-327 (from UniProt Q13546)” the relative phosphorylation was 1.15.
For “AURKA, construct: Full length (from UniProt O14965)”, the relative phosphorylation was 0.879.
Substance “PRKACB, construct: Full length (from UniProt P22694)” has a relative phosphorylation of 0.474.

Same assay, conditions: pThr fixed; at -4
For “RIPK1, construct: aa1-327 (from UniProt Q13546)”, the relative phosphorylation was 1.08.
“AURKA, construct: Full length (from UniProt O14965)” showed a relative phosphorylation of 0.972.
“PRKACB, construct: Full length (from UniProt P22694)” gave a relative phosphorylation of 0.789.

Same assay, conditions: pThr fixed; at -5
In the case of “RIPK1, construct: aa1-327 (from UniProt Q13546)”, the relative phosphorylation is reported as 0.87.
In the case of “AURKA, construct: Full length (from UniProt O14965)”, the relative phosphorylation is reported as 1.04.
“PRKACB, construct: Full length (from UniProt P22694)” gave a relative phosphorylation of 0.727.

Same assay, conditions: pTyr fixed; at +1
For “RIPK1, construct: aa1-327 (from UniProt Q13546)”, the relative phosphorylation was 0.391.
“AURKA, construct: Full length (from UniProt O14965)” gave a relative phosphorylation of 0.836.
With “PRKACB, construct: Full length (from UniProt P22694)” the relative phosphorylation was 1.06.

Same assay, conditions: pTyr fixed; at +2
For “RIPK1, construct: aa1-327 (from UniProt Q13546)”, the relative phosphorylation was 0.788.
Work on “AURKA, construct: Full length (from UniProt O14965)” yielded a relative phosphorylation of 1.53.
“PRKACB, construct: Full length (from UniProt P22694)” showed a relative phosphorylation of 1.

Same assay, conditions: pTyr fixed; at +3
With “RIPK1, construct: aa1-327 (from UniProt Q13546)” the relative phosphorylation was 0.54.
In the case of “AURKA, construct: Full length (from UniProt O14965)”, the relative phosphorylation is reported as 1.74.
“PRKACB, construct: Full length (from UniProt P22694)” gave a relative phosphorylation of 1.24.

Same assay, conditions: pTyr fixed; at +4
With “RIPK1, construct: aa1-327 (from UniProt Q13546)” the relative phosphorylation was 0.968.
With “AURKA, construct: Full length (from UniProt O14965)” the relative phosphorylation was 1.43.
“PRKACB, construct: Full length (from UniProt P22694)” showed a relative phosphorylation of 1.37.

Same assay, conditions: pTyr fixed; at -1
“RIPK1, construct: aa1-327 (from UniProt Q13546)” gave a relative phosphorylation of 0.683.
Substance “AURKA, construct: Full length (from UniProt O14965)” has a relative phosphorylation of 2.24.
Work on “PRKACB, construct: Full length (from UniProt P22694)” yielded a relative phosphorylation of 0.979.

Same assay, conditions: pTyr fixed; at -2
“RIPK1, construct: aa1-327 (from UniProt Q13546)” was tested, and the relative phosphorylation was 0.719.
“AURKA, construct: Full length (from UniProt O14965)” gave a relative phosphorylation of 0.356.
In the case of “PRKACB, construct: Full length (from UniProt P22694)”, the relative phosphorylation is reported as 0.276.

Same assay, conditions: pTyr fixed; at -3
“RIPK1, construct: aa1-327 (from UniProt Q13546)” was tested, and the relative phosphorylation was 1.19.
For “AURKA, construct: Full length (from UniProt O14965)”, the relative phosphorylation was 1.
“PRKACB, construct: Full length (from UniProt P22694)” showed a relative phosphorylation of 0.451.

Same assay, conditions: pTyr fixed; at -4
“RIPK1, construct: aa1-327 (from UniProt Q13546)” gave a relative phosphorylation of 0.795.
Work on “AURKA, construct: Full length (from UniProt O14965)” yielded a relative phosphorylation of 0.962.
Work on “PRKACB, construct: Full length (from UniProt P22694)” yielded a relative phosphorylation of 0.775.

Same assay, conditions: pTyr fixed; at -5
“RIPK1, construct: aa1-327 (from UniProt Q13546)” was tested, and the relative phosphorylation was 0.72.
“AURKA, construct: Full length (from UniProt O14965)” showed a relative phosphorylation of 1.3.
“PRKACB, construct: Full length (from UniProt P22694)” gave a relative phosphorylation of 0.82.
